This note sets out measurements from the Immune Epitope Database (IEDB).

Some targets named below: HLA-A*11:01; HLA-A*31:01; HLA-A*03:01; HLA-A*33:01; HLA-A*68:01.
Holding throughout (assay): IEDB peptide-MHC binding, purified MHC/competitive/radioactivity; filed as Kd, often an IC50 or EC50 that approximates it; ≥ and ≤ were set here for values at or beyond the usual limits of such assays
[1] abbreviates: source organism: Vaccinia virus WR.
[2] abbreviates: source organism: SARS coronavirus Tor2.
Where [3] appears, read: source organism: Dengue virus 2 Jamaica/1409/1983.
[4] abbreviates: source organism: Mammarenavirus tacaribeense.
Where [5] appears, read: source organism: Dengue virus 4 Philippines/H241/1956.
Setting [6] is: source organism: Mammarenavirus guanaritoense.
The mark [7] stands for this setting: source organism: Dengue virus 3 Martinique/1243/1999.
[8] abbreviates: source organism: Dengue virus 4 Dominica/814669/1981.
Setting [9] is: source organism: Dengue virus 1 Brazil/97-11/1997.
Setting [10] is: source organism: Lymphocytic choriomeningitis virus (strain Armstrong).
The mark [11] stands for this setting: source organism: Dengue virus 4 Thailand/0348/1991.

Broadly, the Kd is a measure of binding affinity in units of concentration. For VALSSLVSK, the equilibrium dissociation constant (Kd) in the assay with HLA-A*11:01 (setting [1]) was 15.1 nM; with HLA-A*31:01 (setting [1]) it was 2040 nM; with HLA-A*03:01 (setting [1]), 283 nM; with HLA-A*33:01 (setting [1]), at least 39800 nM; with HLA-A*68:01 (setting [1]) it was 1070 nM.

With SLTILDDNLY, the Kd with HLA-A*11:01 (setting [1]) is 3070 nM; with HLA-A*31:01 (setting [1]) it was at least 47000 nM; with HLA-A*03:01 (setting [1]), 491 nM; with HLA-A*33:01 (setting [1]), 15000 nM; in the assay with HLA-A*68:01 (setting [1]), 5990 nM.

On to IILAALFMYY, for which the Kd in the assay with HLA-A*11:01 (setting [1]) is 740 nM; with HLA-A*31:01 (setting [1]), at least 70000 nM; with HLA-A*03:01 (setting [1]) it was 679 nM; with HLA-A*33:01 (setting [1]), at least 70000 nM; in the assay with HLA-A*68:01 (setting [1]), 1480 nM.

SLTVLFDGR: the Kd in the assay with HLA-A*11:01 (setting [2]) is 7530 nM; with HLA-A*31:01 (setting [2]) it was 350 nM; with HLA-A*03:01 (setting [2]) it was 4810 nM; with HLA-A*33:01 (setting [2]) it was 2520 nM; with HLA-A*68:01 (setting [2]), 1340 nM.

Regarding RLPTFMTQK, in the assay with HLA-A*03:01 (setting [3]), the Kd was 2.36 nM.

For the sequence ISDYSAEVER, the Kd is 3840 nM with HLA-A*11:01 (setting [1]); 1730 nM with HLA-A*31:01 (setting [1]); at least 23400 nM with HLA-A*03:01 (setting [1]); 1360 nM with HLA-A*33:01 (setting [1]); 229 nM with HLA-A*68:01 (setting [1]).

Regarding SSLVKNVNK, the Kd is 27.1 nM with HLA-A*11:01 (setting [1]); 1250 nM with HLA-A*31:01 (setting [1]); 432 nM with HLA-A*03:01 (setting [1]); at least 77700 nM in the assay with HLA-A*33:01 (setting [1]); 4400 nM in the assay with HLA-A*68:01 (setting [1]).

In the case of VCPLGLLLK, the Kd is 2420 nM in the assay with HLA-A*11:01 (setting [4]); at least 26500 nM with HLA-A*31:01 (setting [4]); 5830 nM with HLA-A*03:01 (setting [4]); at least 77700 nM with HLA-A*33:01 (setting [4]); at least 77600 nM in the assay with HLA-A*68:01 (setting [4]).

Regarding LALTDVEKR, the Kd is 12300 nM in the assay with HLA-A*11:01 (setting [1]); 209 nM with HLA-A*31:01 (setting [1]); at least 78000 nM with HLA-A*03:01 (setting [1]); at least 73300 nM with HLA-A*33:01 (setting [1]); 162 nM with HLA-A*68:01 (setting [1]).

On to ELRRAAIDR, for which the Kd was at least 77900 nM with HLA-A*11:01 (setting [1]); 18100 nM in the assay with HLA-A*31:01 (setting [1]); at least 78000 nM with HLA-A*03:01 (setting [1]); 1090 nM in the assay with HLA-A*33:01 (setting [1]); 83.2 nM with HLA-A*68:01 (setting [1]).

As to KSKQDRSDGY, the Kd is at least 69800 nM with HLA-A*11:01 (setting [1]); at least 70000 nM with HLA-A*31:01 (setting [1]); at least 35300 nM with HLA-A*03:01 (setting [1]); at least 70000 nM in the assay with HLA-A*33:01 (setting [1]); at least 70200 nM in the assay with HLA-A*68:01 (setting [1]).

TFAAGLLLR: the Kd in the assay with HLA-A*33:01 (setting [3]) is 68.1 nM.

With SFIEDLLFNK, the Kd is 352 nM with HLA-A*11:01 (setting [2]); 53.5 nM with HLA-A*31:01 (setting [2]); 7950 nM in the assay with HLA-A*03:01 (setting [2]); 387 nM with HLA-A*33:01 (setting [2]); 725 nM in the assay with HLA-A*68:01 (setting [2]).

Regarding ILKRWGQLKK, the dissociation constant Kd with HLA-A*03:01 (setting [5]) was 38.5 nM.

For VTLFYCDER, the Kd was 273 nM with HLA-A*11:01 (setting [1]); 131 nM with HLA-A*31:01 (setting [1]); at least 43200 nM with HLA-A*03:01 (setting [1]); 284 nM with HLA-A*33:01 (setting [1]); 121 nM in the assay with HLA-A*68:01 (setting [1]).

As for CCNWLDRCR, the Kd with HLA-A*11:01 (setting [6]) is 18100 nM; with HLA-A*31:01 (setting [6]), 13500 nM; with HLA-A*03:01 (setting [6]), at least 78000 nM; with HLA-A*33:01 (setting [6]), at least 56800 nM; in the assay with HLA-A*68:01 (setting [6]) it was at least 77600 nM.

GTSIFAGHLK: the Kd with HLA-A*11:01 (setting [7]) worked out at 23.5 nM; in the assay with HLA-A*03:01 (setting [7]) it was 3.86 nM; in the assay with HLA-A*68:01 (setting [7]) it was 114 nM.

For PTFAAGLLLR, in the assay with HLA-A*68:01 (setting [3]), the Kd stood at 837 nM.

With LTTLSRTSKK, the dissociation constant Kd with HLA-A*11:01 (setting [3]) was found to be 1860 nM.

On to MTLMKGASRR, for which the Kd with HLA-A*31:01 (setting [8]) stood at 81.9 nM; with HLA-A*33:01 (setting [8]) it was 68.5 nM; with HLA-A*68:01 (setting [8]) it was 39.7 nM.

As for RINGIPQQH, the Kd with HLA-A*03:01 (source organism: Homo sapiens) stood at 110 nM.

In the case of ATCVYNMMGK, the Kd with HLA-A*11:01 (setting [9]) is 20.1 nM; in the assay with HLA-A*03:01 (setting [9]) it was 1.91 nM.

Consider HMIVSKQER, for which the Kd with HLA-A*31:01 (setting [9]) was at least 77900 nM; with HLA-A*33:01 (setting [9]), 8610 nM.

For SALTLHWFR, the Kd amounted to 0.247 nM with HLA-A*31:01 (setting [5]), 3.7 nM in the assay with HLA-A*33:01 (setting [5]) and 2.37 nM in the assay with HLA-A*68:01 (setting [5]).

Take IVTMFEALPH: the Kd with HLA-A*31:01 (setting [10]) is at least 70000 nM; with HLA-A*33:01 (setting [10]), 75.1 nM; in the assay with HLA-A*68:01 (setting [10]), 5840 nM.

As for TVMAFHLSTR, the dissociation constant (Kd) with HLA-A*11:01 (setting [11]) worked out at 69.4 nM; with HLA-A*31:01 (setting [11]), 5.92 nM; with HLA-A*33:01 (setting [11]), 21.3 nM; with HLA-A*68:01 (setting [11]), 4.43 nM.

Turning to TIEEGRTLR, the dissociation constant Kd with HLA-A*33:01 (setting [9]) was 382 nM.

As for TTNIWLKLR, the Kd in the assay with HLA-A*31:01 (setting [3]) amounted to 2.64 nM; with HLA-A*33:01 (setting [3]) it was 7.25 nM.

Take DTTPFGQQR: the figures for the Kd in the assay with HLA-A*33:01 (setting [5]) and with HLA-A*68:01 (setting [5]) were 94.5 nM and 91 nM, respectively.

Turning to FFTASLFLH, the Kd with HLA-A*11:01 (source organism: Mammarenavirus juninense) was found to be 247 nM.

With IVTCAMFTCK, the results for the Kd with HLA-A*11:01 (setting [3]) and with HLA-A*03:01 (setting [3]) were 352 nM and 362 nM, respectively.

YQNKVVKVLR: the equilibrium dissociation constant (Kd) with HLA-A*33:01 (setting [5]) was 446 nM.

TMRCIGISNR: the dissociation constant (Kd) with HLA-A*31:01 (setting [3]) is 3.66 nM; with HLA-A*33:01 (setting [3]), 14.1 nM.

For EFGRAKGSR, the Kd with HLA-A*33:01 (setting [5]) was determined as 38.1 nM.

KVASAGISYK: the Kd with HLA-A*11:01 (setting [5]) stood at 22.7 nM; with HLA-A*03:01 (setting [5]), 3.14 nM.

As for TVASAAQRR, in the assay with HLA-A*68:01 (setting [9]), the Kd is 33.8 nM.

In the case of ALNDTWKMEK, the Kd with HLA-A*11:01 (setting [3]) was found to be 392 nM; with HLA-A*03:01 (setting [3]) it was 82.4 nM.

As to VLARWGTFKK, the Kd with HLA-A*03:01 (setting [7]) was found to be 18.3 nM.
